Data taken from publication PMC9695642, “Conservation of Importin α Function in Apicomplexans: Ivermectin and GW5074 Target Plasmodium falciparum Importin α and Inhibit Parasite Growth in Culture” (International Journal of Molecular Sciences, 2022).

Key:
[1] = molecular target: His-tagged GCN5-NLS-GFP (NLS of T. gondii histone acetyltransferase GCN5 fused to GFP) (Toxoplasma gondii); assay: AlphaScreen or HTRF; biotinylated IMPαs titrated against His-tagged NLS-GFPs (30 nM); apparent dissociation constant
[2] = molecular target: His-tagged TGS1-NLS-GFP (NLS of P. falciparum trimethylguanosine synthase fused to GFP) (Plasmodium falciparum); assay: as above
[3] = molecular target: His-tagged Mus musculus importin α (Mus musculus) (UniProt P52293); assay: AlphaScreen or HTRF; His-tagged IMPαs (30 nM) titrated with increasing concentrations of biotinylated GST-MmIMPβ1 (legend: 5 nM)
[4] = molecular target: His-tagged Toxoplasma gondii importin α (Toxoplasma gondii); assay: as above

| Substance | Kd [1] [nM] | Kd [2] [nM] | Kd [3] [nM] | Kd [4] [nM] |
| --- | --- | --- | --- | --- |
| Toxoplasma gondii importin α, biotinylated GST fusion protein (natural protein) | 5 | 1.9 |  |  |
| mammalian IMPα/β1 heterodimer from M. musculus (from UniProt P52293 1-529; P70168 1-876) (complex) | 3.2 | 2.5 |  |  |
| biotinylated GST-MmIMPβ1 (Mus musculus importin β1) (from UniProt P70168 1-876) (natural protein) |  |  | 2.5 |  |
| biotinylated GST-MmIMPβ1 (Mus musculus importin β1) (from UniProt P70168 1-876) |  |  |  | 1.2 |
